Test results: patent US20240026407A1, “MODIFICATION OF SAPONINS” (GLAXOSMITHKLINE BIOLOGICALS SA, priority 2020, published 2024)

B1: 1019 (protein)
chain: MNKKQLILLCMLAAGGSIQAQQWPDAPAEARPGTRWWWLGSAVDEKNLTYNLEEYARAGMGAVEITPIYGVQGNDANDIQFLSPRWMEVLKHTQAEGKRTGIEIDMNTGTGWPFGGPEVSIEDAASKAIFQTYDIEGGQEIVQDINVTDKKQQPYSVLSRVMAYDENGRCINLTSHVRKDKLVWKAPAGKWKVIALYNSKTRQKVKRAAPGGEGYVMNHLSKTAVKNYLSRFNRAFKSSKTSYPHTFFNDSYEVYQADWTEDFLDQFARRRGYKLEEHFPEFLDENRPEISRRIVSDYRETISDLLLENFTRQWTDWAHKNGSITRNQAHGSPANLIDVYAAVDIPECEGFGLSQFHIKGLRQDSLTKKNDSDLSMLKYASSAAHIAGKPYTSTETFTWLTEHFRTSLSQCKPDMDLMFVSGINHMFFHGTPYSPKEAEWPGWLFYASINMNPTNSIWHDAPSFFDYITRCQSFLQMGKPDNDFLIYLPVYDMWDEQPGRLLLFSIHHMAKLAPKFIDAIHRINNSGYDGDYISDNFIRSTRFKDGQLITSGGTGYKALVVPAAHLMPNDVLAHLLKLAQQGATIVFLENYPTDVPGYGQLEQKRKTYQQTLQKLPSVSFSETTVTPVGKGKIITGTDYARTLASCNIPQEEMKTKFGLQAIRRVNDSGHHYFISSLQDKGVNDWVTLGTKAKAAALFNPMTGECGEAKVRQAGEQTQVYLQLKSGESVILQTYQQPLQAARPWKYIQEQPFSLSLDHGWKLHFAESEPKIKGTFDIDRPCSWTGIDHPAAKINMGSGVYSLDIELPALQADDWVLDLGDVRESARVRINGQEAGCAWAVPYQLRVGHLLKSGKNHIEIEVTNLPANRISELDRQGVQWRKFKEINIVDLNYRPANYGHWAPMPSGLNSEVRLIPVDYLSFKTH
modifications: Bacteroides thetaiotaomicron
B2: 1033 (protein, listed as Pedobacter heparinus)
chain: MNRRTFIQNTSIATSSLVFFNQFESLAFSKSDQDLYTLFKNPPANYRPFVRWWWNGNKIQKKELFRQLTLLKDAGIGGVEINPISFPNKADDMGIKSLRWLSDEWIDLVKDTCNEARSKDMTCDLIVGSGWPFGSEDLKEEERAEVVLVFAEKVEGPMVYETTKYSIYNAIDPQVTDKNPLRSPILMDLKLSQDPIAAIATTIDFSNQINNDIIKIDVPEGKHCIYALVKFKSFAKVINGAPGASGSILNHLNKQAVESYLNRMSSTMQDRIGPLSNYLRALFTDSMELEGCNWCEDFPAEFKKRCGYDLMPYLPFILFKVGRLGAVVDEDYGAEKSQDLNVILKKVRFDFEYTKALLLRERFTEVYLKWCKELKVKSRAQAYGRGFFPLETSLGYDIPEGESWTTNYLRHKLGEEMSDEDYRRGRGYTMINKYVSSAAHLTGKRIVSCEEMTNTYLVFNATLELLKLGSDQSIMSGITHSVWHGFNYSPKEVAFPGWVQYGSYYSEKNNWWPYFKYLNDYKARLSSQLQHGDYYTDIAILPANYDLWANNGVQTDPFPEKLNVPYTSLLWEAINKNGGAADYITDMILTQSEIIKGKIVYGKKSFGVLFLPGVESLSELAMQKIEQFVKTGGKVICIEKYPAKGLGFLNWEQKDATIKDAVARLKQQFSDRFIFLDKPADNKFLEWYTPLIATHQLPSYLNISTPNRYFMQIRSVRDDGTEMFFFQNAHRYDAYQARVVFDRKKIKGKYAWVWDLDSGERFRLTLTNDTTFEYNFGPTESLLIIFDQIKNGEKWKPLLSSGKSTLNLDKVWDLELRNSLDGSVKHVNLPQVIDMKDDKELVNFTGTAIYRKKITLTDTKNLVINLGKVYGITQLYINKVQVGIKWYGKRFFDISKYVQTGTNDIEIHLVTTMGNYMKTLTDNEIAQYWVNRKGREQEIQSMGIVGPIEIYQQN
B3: 1067 (protein, listed as Pedobacter heparinus)
chain: MKLIPNFLKTSMQQTVLLLLLALVCCADTVLAQQSGKASWIWYPGDLDIWVSNKMQNRRTERGAFLPPFWKMDSHYVLVEFHKEFNLANAEEVNLYVEGQYNVKIDGQAFSGYPKKITVPAGKHKLSLKVYGQDKVPAILVQGKTVVSDESWLATFEDKEWIDASGKASDKSGTTFVSAASWNLTDPLSPPSRFKLATTPMAAVKTDKVNNGFVADFGKETFGFIKLHGLKGKGKLHIYYGESKEEALSADHCETLDLLEIDLKGKQDSVIELSKAFRYVNCQPEGNVTLDKVSMLYEYAPVTEKGNFRCSDEQINKIYDISKYTFHLNTREFFIDGIKRDRWVWSGDAYQSYLMNYYSFNESPIVKRTLLAQRGKDPVTAHINTIMDYSFYWFLGIYDYYQYSGDQKFVQDIYPRMKSLMDYVLGRRNKDGLLEWMPGDWIFIDWADKLSKDGEVSFEQLLFCRSLETMALCADMAKDTEAAANYKKLAADLKARIFKLYWDENKHALVHSRINGKPTDNVTRYANMFGIFFDYFSPSQKQEVKQHVLMNNKINKITTPYMRFYELEALCAMGEQSYVLKQMKDYWGGMLELGATSFWEEYNRDKKGVEHLAMYGRPFGKSLCHAWGASPIYLLGKYYLGVKPLSAGYETYVVEPSLGGLEWMEGKVPTPSGEISLYCSKKEIRIKADEGSGVLRFKSVSKPVVKGGKVVEVGKRTYELKLMKGVQYTVNYQK
B4: 1064 (protein, listed as Lachnospiraceae bacterium)
chain: MEIYNLKINGMVNPIGFEYKEIICSWKVRKTEDKQQKKARISISADQEFHEIVFQIEGEELDSTGTLADFKIKPYTTYYWKVYVEGENGEYGTSETAFFETAKMCHKWKADWIGTDKEDTFHPVFQKKFYLRDGIKKARLYCCGLGVYEGYINGKKAGNDYLAPFINDYKDNLQYQTYDITDLLFQQKENKIEFLLGKGWYIGKFGLDGCEKIFGDEMMLIAEIRVEYFDGRIEVICTDDNWKYKGSDIEDSGIYFGEKINRQLWDDRQNLWKQAVKKKQKTPLKERYSLPLTVKEDIVPVKIIHTPIGETVLDVGQNMVGYMEFFADFPKGTRIKIECGEILQHGNFCHDNYTIAESTFEYISDGRKETVRPHFTYMGFRYLRVTGWPNEIKLGDIKCRVIYSDLQRTGFCKTQNSMLNQLYENCIWSQKSNFVDMPTDCPQRGERLGWTGDAQVFAATACYNMDTRAFYRKYLRDIRSHQLRKNGAIPNFIPDLGTFSEACSIWGDAATILPYQIYQSYGCAEEIRSYYTTMKDWVEYMVSMDESQGRHYKFQPGFQFGDWLALDGITEQSLKGSTDDNYIGCCYYYHSVKITSEIAQVLGYTEDAQRYQELSGKIRKAILNEYFTPKGRLSVDTQTAYIIALKFGLYNNKNVLIQQFKERLTRDCYKIKCGFAGTPLLCSVLGENGMEDIAYRILLNKDYPGWLYCVNLGATTVWERWNSVLSDGMLSGTGMNSLNHYAYGSVVQYFYEYIAGIRPKRPGFKEAFIEPKPDIRIQGVMCSYDSAMGVYKSEWKIQENGLICIHIEIPFNCTADVLLPEYSSNGLTYSDNVNGEMISENGKLQLCSGKYDFAYFPKNDYRHVYKPESILGDLREDKEALEILEKNIPVLYEIIQSNDIENMLITLQEFDTLHFMGIDPEIADETRKKIYNLNYYGK
B5: 1071 (protein, listed as Opitutus terrae)
chain: MKRMKIMKRRIDIFRSSLFLGAYPAMAAPFVQRSAWIWSAEGTHAAPAPESASPSHYQVRLFRRVFLLENGGREGRIAVSADSRYVLYCNGALIGRGPARGDVHHQFYDTYELAPYLHRGANVLAALVLDMSHVAHRPAALGAPGGVMTYAGGFLLEGGVVDLNDRMEILDTGAAGWKVTVDRSYRFQNDGTRFEGYHGYFEHRVSAEAPADWTAASFDDSAWPDATVLYRAERLENRRDPASPYGLVARMIPPMEVGRVARFAAGVLPGGGKPGAEWKRLAAGKGAVTIPARSTVRIILDAGRMTTAYPLVQTDGGPGAHIRLTYAEALRLPWSTVGARMLGRPQSLANLASHFADESSGWTFDARGHVTGWSDRWEPAGRPREVFEPWHWRSFRFVELEIVTAEEPMELTDLGYRFTAYPYRVEAEFACSDPRLERIWQTALHTMRLCSHETFVDCPHYEQMQYAGDTMITSKLAMLSTGDYALSRQALLQFDWSRIPDGLTQSRYPSRLLQVIPSWSLHWITSIRDYACCSGDLQTVNEVLPGVRVVLDWYRRHADPSGLPSRLPYWNITDWCSWWPRGVVPGADEGPTCIISAQFVQALAEAADLHGWVGQRHEQRRLATEVKTLRGVLRRRFWSRDEGLFFDKPGGPEVSQYGNAWAIVCGAATAADRKRMLARFPADPLLAPGSFFCWHAVFRALEAAGAYDRLPEFLGPWHEMVEAGLDTFVEENSYWRSLCHAWSAHPALEFLAGVLGVKALEPGFATVRVTPHRCGLREARGQVCTPRGPITVAWTWEKGRFRIRVTAPRELQVEIGLPDGSDHRMTHGRFETEVVIHEA
B6: 1059 (protein, listed as Solibacter usitatus)
chain: MVEMSVPVLRSSAFIALLAGLALGADPANITELQRGFQHPPDEARIMVRWWWFGPAVTKPELEREMRLMKQGGIGGFEVQPTYALELDNAEKGIKNLPYMSPEFLEALRFTGEKAKELGLRMDLTLGSGWPFGGPHIPVELASPRLRVARAAVTAGAAAINVPELQPSEKLIAAFLGNQELEAAGSQSFRLPPSAAGQVTFFISSHTRQTVKRPAVGAEGWVLNHYDRAAIEQHFKSVGEPMLNALAKTPPAAIFSDSLEVYNSDWTGDFLAQFAKRRGYDLKPYLPALAGDIGEKTGAIRNDWGQTLSELAEENYLKPLTAWAHQHNTKFRSQTYGIPPVTLSSYSLVDLPEGEGTQWRHFSSTRWATSASHLYNRPVTSSETWTWLHSPVFRATPLDMKAEADLHFLQGVNQLVAHGWPYSPPSVGEPGWRFYAAAVFNEHNPWWIVMPDIATYMQRVSWMLRQGKPVNDVAVYLPTHDAFAGFTLGRDSVNQAMEGILGPKLVPTILDAGYGFDFIDDGAIAAGGVPHKILIVPGAERIPLATYQKIEEYRRDGGKVFFTKRLPSLAPGLREEGDTAKIRELSAKHVVTGDDGLAGALHDALPADFTAPPEIGVVHRKLAYADVYFLANTSNHAVKGAAKFRASGMPAAWWDPVTGKSSKADLNLELAPYESRVLVFSRAGGAVMGQAMSLPEVDISSDWTITFPGEQPVKMATLRPWTDEENRKFYSGTATYERKVTATPAMAAAHVFLNFGEGTVADPASERRAPSGMRAWLESPVREAAQVFVNGKPAGAVWKAPYEVDVTGLLQAGENSIRVVVANLALNVLAKGPLPDYKELTAKYGEKFQAQDMQSVRALPGGMMGPVKLVSK

Tests used:
Type in all cases: biochemical, Quillaja saponaria
[1] = Experiment 6-1: screening of rhamnosidases for derhamnosylation of saponins in treated bark extract (2%), QS-17 2296 to QS-18 2150 (PAR %); conditions: TBE 2%, pH 7.5, 30 degC, 18 h; TIC peak area ratio percent of rhamnosylated starting saponin to derhamnosylated product, LCMS/MS; negative controls 4.876, 5.225
[2] = Experiment 6-1: screening of rhamnosidases for derhamnosylation of saponins in treated bark extract (2%), desglucosyl-QS-17 2134 to QS-21 1988 (PAR %); conditions: TBE 2%, pH 7.5, 30 degC, 18 h; TIC peak area ratio percent, LCMS/MS; negative controls 2.719, 2.158
[3] = Experiment 6-1: screening of rhamnosidases for derhamnosylation of saponins in treated bark extract (2%), QS-17 2310 to QS-18 2164 (PAR %); conditions: TBE 2%, pH 7.5, 30 degC, 18 h; TIC peak area ratio percent, LCMS/MS; negative controls 3.061, 2.429
[4] = Experiment 6-1: specificity of rhamnosidases towards other rhamnose residues (C3 saccharide rhamnose, C28 saccharide rhamnose); conditions: TBE 2%, pH 7.5, 30 degC, 18 h; LCMS/MS; negative controls 0.18, 0.17

Molecule | QS-17 (PAR %) [1] [%] | Peak75 (PAR %) [2] [%] | Peak57 (PAR %) [3] [%] | ratio PP/QS-21 [4]
B1 | 4.626 | 2.982 | 2.390 | 0.15
B2 | 4.485 | 2.521 | 2.927 | 0.16
B3 | 4.455 | 2.231 | 2.852 | 0.17
B4 | 4.625 | 2.476 | 3.009 | 0.18
B5 | 4.587 | 2.574 | 2.650 | 0.17
B6 | 4.613 | 2.534 | 2.956 | 0.16
